The target of this experiment is T1, human IL12RB1 Fc fusion protein (human, UniProt P42701 24-545).
T1 construct: Purchased from R & D systems; Coated on the ELISA plate; also called human IL-12RB1 receptor subunit; human IL12 receptor; not shown: Fc part of the purchased fusion protein (R & D systems)
The experiment can be described thus: ELISA, receptor-Fc coated on plate, titration of cytokine, detection with anti-human p40 monoclonal antibodies. On the procedure: To test whether cynomolgus IL-23 binds to the human IL23 receptor (“IL23R”), and whether cynomolgus IL-12 binds to the human IL12 receptor (“IL12RB1”), human IL23R Fc and human IL12RB1 Fc fusion proteins were purchased (R & D systems) for an ELISA assay. To capture IL23R Fc fusion protein, 500 ng of IL23R—Fc protein in 100 μl of PBS (pH 7.4) was put onto a 96-well Maxisorb plate (NUNC, Rochester, N.Y.) and incubated overnight at 4° C. Likewise, to capture IL12RB1 Fc fusion protein, 500 ng of IL12RB1 Fe protein in 100 μl of PBS (pH 7.4) was put onto a 96-well Maxisorb plate (NUNC, Rochester, N.Y.) and incubated overnight at 4° C. For each, the capture solution was thrown away after overnight incubation and the plate was washed with 200 μl per well of TBST (25 mM Tris-HCl pH 7.5, 150 mM NaCl and 0.01% Tween 20) three times. The plate was then blocked with 200 μl per well of TBST containing 5% nonfat dry milk for 30 minutes at room temperature. After blocking, the plate was washed 3 times with 200 μl per well of TBST at room temperature and a titration of cynoIL23 or cynoIL12 in PBS was added to the plate and incubated at room temperature for 1 hour. […] A 100 μl solution containing 2 NH₂SO₄ was added to stop the reaction and the plate was read on a 96 well SpectroMax plate reader at 450 nm.

The results in this text go back to patent US20090142855A1 (published 2009).

B1: cynomolgus IL-12 (single chain: cyno p40 - 2 bovine elastin motifs - cyno p35) (ligand)
chain: IWELKKDVYVVELDWYPDAPGEMVVLTCDTPEEDGITWTLDQSGEVLGSGKTLTIQVKEFGDAGQYTCHKGGEALSHSLLLLHKKEDGIWSTDVLKDQKEPKNKTFLRCEAKNYSGRFTCWWLTTISTDLTFSVKSSRGSSNPQGVTCGAVTLSAERVRGDNKEYEYSVECQEDSACPAAEERLPIEVMVDAIHKLKYENYTSSFFIRDIIKPDPPKNLQLKPLKNSRQVEVSWEYPDTWSTPHSYFSLTFCIQVQGKSKREKKDRIFTDKTSATVICRKNASFSVQAQDRYYSSSWSEWASVPCSVPGVGVPGVGRNLSVATPGPEMFPCLHHSQNLLKAASNTLQKARQILEFYPCTSEEIDHEDITKDKTSTVEACLPLELIKNESCLNSRETSFITNGSCLASRKTSFMMALCLRSIYEDLKMYQVEFKTMNAKLLRDPKRQIFLDQNILGVIDELMQALNFNSETVPQKSSLEEPDFYKTKIKLCILLHAFRIRAVTIDRVMSYLNAS
notes: expressed in 293F cells and purified from the supernatant, about 95% pure; Any vector-derived residues at the junctions or a signal peptide are not described; also called cynoIL12; cyno IL-12
Consider B1, for which the binding result was “binds”.
